The supplement of paper PMC10724198
± gives the standard deviation of the averaged measurements.

Tested on: Saccharomyces cerevisiae
Test: protein stability index of tFT-peptide fusion (C-terminal peptide) (PSI (0-1 scale)); higher = more stable (slower turnover)
Details: genetic background: wild type; temperature: 30 C
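Note: PSI is a weighted mean of sequencing reads over stability bins, variants kept only with over 10 reads, mCherry proximal and sfGFP distal, peptide attached via GGGS linker.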

Sequence	protein stability index
HMHTSKTFSNGP	0.738 ± 0.093
NGTGGVEGPQTL	0.659 ± 0.025
RTKIEIKNRENI	0.774 ± 0.12
KKKKEISNEAKQ	0.672 ± 0.093
KTALWQPNCKTD	0.655 ± 0.011
GLSRYLTCNNLV	0.674 ± 0.0075
VLYGRFSLLGWC	0.595 ± 0.042
TKDRIIMKKKKE	0.7214 ± 0.0031
PPPPPSPSPCLA	0.767 ± 0.044
GRCVCVLFWHVS	0.571 ± 0.0078
SSPFPVPLSRPS	0.6759 ± 0.0032
MITRPASKYLVK	0.6221 ± 0.0052
WIFRDHVLRRFP	0.661 ± 0.024
CVLFSGLSVDGC	0.7215 ± 0.004
DSQGSVHPEAQE	0.723 ± 0.012
QCYNGSSGVSNL	0.676 ± 0.028
KKEKDKTINKQK	0.697 ± 0.067
ERKNTTSEFTNL	0.684 ± 0.0079
GGAGGNLAPGRG	0.638 ± 0.026
RLSPLTLPFCTS	0.645 ± 0.06
MLGRLLDRCYDY	0.678 ± 0.029
SGRIYLVGLRYI	0.538 ± 0.0068
APNPPPPPPPLP	0.729 ± 0.03
CTLVSREHFGFL	0.685 ± 0.041
SGARDLVILTPW	0.713 ± 0.013
DRRTGRAGEMSP	0.669 ± 0.064

Sequence	protein stability index
WAERESLNGLSA	0.718 ± 0.027
GKEGGRERVANE	0.639 ± 0.091
DGRYVDSEIDNP	0.714 ± 0.059
FPCIPAAPPIFL	0.71 ± 0.015
STTCPTGLTVGR	0.69 ± 0.054
WRGGAWVRGCVL	0.74 ± 0.04
RWVRGDVFQGFC	0.693 ± 0.052
PIVRTQLGNSVQ	0.696 ± 0.067
SGAGGGGWGGGV	0.7535 ± 0.0062
YSCDEDPVTVRG	0.699 ± 0.036
CLAAHARFSLRL	0.65 ± 0.05
GVQDEERYSRSE	0.6563 ± 0.0063
PPPPAPPPPVPS	0.69246 ± 0.00027
SIWVLLVPRQSI	0.639 ± 0.11
PPSFLHPTPRPR	0.673 ± 0.082
RSSCVRGVTLAL	0.695 ± 0.023
PPPLPLPPPPPP	0.58 ± 0.048
VFLCNGVGGRGG	0.681 ± 0.27
KKNKKKKEKKAK	0.625 ± 0.025
RTECRCCVGEVG	0.656 ± 0.069
CVPLPCLPLPPS	0.66 ± 0.012
AKKTKSRANSDL	0.701 ± 0.085
HLPSHPSLPPAP	0.707 ± 0.029
VAPPRQGSPASR	0.725 ± 0.057
FPPPPFFFIPLP	0.724 ± 0.048
RAFASLALAILP	0.623 ± 0.038

Sequence	protein stability index
AAIFDSIRKDLR	0.69 ± 0.039
CCYCLTVCRWFT	0.571 ± 0.038
GGGRPGLRALSY	0.747 ± 0.034
MLYENNTAPLFI	0.635 ± 0.045
PPSPSLLPPLPP	0.684 ± 0.041
LDGLNLVRVVGV	0.674 ± 0.044
SPPVTASLCLFS	0.692 ± 0.016
PSVPLLPPAPLS	0.784 ± 0.075
FSASLPLSPSPA	0.6784 ± 0.002
CLPHSLPHPPPH	0.6791 ± 0.0056
ADENFKVRKRRS	0.703 ± 0.057
SRCSEPVGGGGA	0.704 ± 0.085
SRGAIGGSACFR	0.652 ± 0.037
LAVILLVLPGND	0.563 ± 0.011
PPHPPPPSPTPP	0.656 ± 0.019
RRSASRQFLLNP	0.73264 ± 0.00024
TASVDQAVRWRG	0.708 ± 0.054
LDINWVGGAPEV	0.727 ± 0.042
AEGYRGECSGCM	0.622 ± 0.052
CGVEERRIGGVC	0.725 ± 0.034
WVSHMHLGSFVH	0.701 ± 0.09
APIRRPTCLSEV	0.708 ± 0.043
PSPAHLPPRSPL	0.714 ± 0.2
PGTGPPSWGRTS	0.605 ± 0.047
PPAPPLPSSPSP	0.773 ± 0.024
PVLRPPPPLSPP	0.734 ± 0.021

Sequence	protein stability index
PPHHPPPTLFPA	0.698 ± 0.076
EPRVGCVGFGIT	0.638 ± 0.013
CLSLPFSLFPLM	0.619 ± 0.068
QRSPNRISPADY	0.798 ± 0.11
NFLPSAARTRTP	0.6758 ± 0.0023
PLPPSPTRPPAN	0.662 ± 0.0099
PPLPPPPRSPPS	0.7565 ± 0.0021
SAAVLRWLASAG	0.683 ± 0.059
PPPPPHRTPHPS	0.727 ± 0.096
PVLGYLTRGLWL	0.721 ± 0.015
LFYFDTWFFPPP	0.762 ± 0.097
SILLPLPRLLPC	0.606 ± 0.018
WRAVVVSGTVAY	0.578 ± 0.025
LPLAMTTIGISL	0.675 ± 0.011
AWCLGVGESRPH	0.739 ± 0.035
ALPRPPSPFSPL	0.666 ± 0.078
PPACPSSRIPVF	0.615 ± 0.041
AGGGGGDAGRGV	0.744 ± 0.078
CRPFGVSCHIRV	0.739 ± 0.17
PPRARPRLPPGA	0.606 ± 0.04
LGSILSSSSSRL	0.699 ± 0.018
MLMFSASAVWGG	0.556 ± 0.048
AHPPPPPPPPAP	0.677 ± 0.14
APPPNPPRPSSR	0.754 ± 0.032
GDYETPSTRSPM	0.67 ± 0.023
VLGFLGWPCSSS	0.76 ± 0.0078

Sequence	protein stability index
DSMLACIHPSPI	0.708 ± 0.0064
IEKYRKNKKTGK	0.677 ± 0.016
AFPPDVPPLTPL	0.72 ± 0.1
PPSPPSHTPPPS	0.695 ± 0.051
RPRLQNLSRSNV	0.74 ± 0.074
VAHSPLPLILPI	0.629 ± 0.041
SPPPSRHPPPRL	0.708 ± 0.016
PSPATCGSSFSK	0.734 ± 0.056
CWYRCLLSCLVL	0.656 ± 0.033
MGYNSRHLDISM	0.677 ± 0.018
ERRERGGERNTP	0.658 ± 0.01
SPPLPSPPTLRL	0.701 ± 0.015
VVGAWGRGGCGG	0.633 ± 0.01
PPGSPPSLHLPP	0.734 ± 0.021
KSDKVYKQKPNT	0.705 ± 0.11
EVTVSGEEQRAG	0.6881 ± 0.0044
PRLVALFEKNPD	0.6615 ± 0.0012
SVAQHLRNGNMC	0.745 ± 0.13
NKTIVNNVKIRY	0.574 ± 0.0065
HGRGVEYGVCDN	0.6776 ± 0.0066
WYKIQILDPNVG	0.749 ± 0.011
LSSNSTTSATYR	0.722 ± 0.016
PSVRRLPARRRT	0.626 ± 0.066
LRGCGSGAGWFL	0.667 ± 0.028
HKGKELTNNAML	0.678 ± 0.039
PLLPPPLSPFPH	0.659 ± 0.013

Sequence	protein stability index
RRHNPARSRARG	0.686 ± 0.053
PVFPLTLPAFSS	0.815 ± 0.018
AFRGFLSVNFNL	0.7338 ± 0.005
VSFNPAGYKSRN	0.671 ± 0.042
HVMLPFTGIGKF	0.672 ± 0.06
STPHPPPILHVL	0.581 ± 0.013
GYLLGCGCGWSG	0.621 ± 0.034
ETARENENTIGE	0.6575 ± 0.0065
AVPPQLAPPRPL	0.679 ± 0.037
VFLPPPPPPAPP	0.639 ± 0.011
PPPPAFPPPLSP	0.716 ± 0.067
VHKMAARGATRL	0.647 ± 0.036
DSSLHRLASLKT	0.643 ± 0.075
AVLRVCHVEVVP	0.634 ± 0.031
GFTGWGRRWLGG	0.713 ± 0.059
SPLTTFPPHRVS	0.711 ± 0.014
IKACGLRSFIKS	0.69 ± 0.059
AGRVGRRGPPNR	0.629 ± 0.038
PPPSSSGHPLHY	0.714 ± 0.05
KKKKKGASEDNI	0.786 ± 0.1
QIISSVFEATSY	0.606 ± 0.037
NVYSVRGPWYGG	0.6604 ± 0.0059
SPPPFPHPHQLP	0.726 ± 0.029
FISPLNFPARPS	0.7181 ± 0.0015
SPLPPPTPLPLV	0.8075 ± 0.0021
LAPTNAPYPHPM	0.658 ± 0.015

Sequence	protein stability index
VSHGPAIHALSI	0.669 ± 0.028
LPSHRSPITSFL	0.668 ± 0.14
LGGWWVSRVGEP	0.732 ± 0.037
IKTQKNKQITKI	0.705 ± 0.071
PPCPFPTLPVTH	0.73 ± 0.013
PATRFSPPSSLS	0.745 ± 0.028
RQCAACLGNPST	0.665 ± 0.1
QQKKPIRKELRN	0.702 ± 0.053
PHSPPRPLPPPL	0.703 ± 0.047
ETCTRHHPRHNS	0.687 ± 0.043
SRRLAFSTVLPA	0.664 ± 0.035
CQRDYLFKSRLP	0.639 ± 0.069
GGGCERGVGLLG	0.626 ± 0.066
PEYGSGCNCLGS	0.664 ± 0.0073
VWLGGGVRLGRL	0.738 ± 0.059
PPPSYSPSLSLL	0.63132 ± 0.00041
AHFQDSTSPATI	0.722 ± 0.017
GSWIGGSVIGGQ	0.763 ± 0.073
LPRLTPARPRHH	0.7 ± 0.1
PSFPRSPHTAPH	0.746 ± 0.022
GGPESMDILRFR	0.62 ± 0.069
NKKIYRTKIKKL	0.5917 ± 0.00069
GPTGPATQNDDS	0.671 ± 0.018
QQKKKTKGNNEV	0.661 ± 0.065
PRTLTPVCPAPH	0.702 ± 0.015
RVGQDGFRVAGC	0.594 ± 0.12

Sequence	protein stability index
KYNKSRRGKIKT	0.697 ± 0.062
ESPPVCFLFSSC	0.711 ± 0.021
VVVSGGGEGFWL	0.745 ± 0.027
VKGLFLHFLESS	0.695 ± 0.042
TVYSPAYSIIHQ	0.584 ± 0.053
PPAPLPLAPSSL	0.722 ± 0.042
DKHGELFIVCKV	0.54 ± 0.033
PPTPPPRPLQLP	0.652 ± 0.0076
PLRDIRSVRYSS	0.685 ± 0.053
TYNVVKSMVDNK	0.672 ± 0.026
KECTWRQGKYNA	0.752 ± 0.089
PSYRVVVFSLPD	0.758 ± 0.063
VVPLTPPLSAPR	0.68 ± 0.031
PSPATCLCSPLP	0.7057 ± 0.0019
PPPPPPVHPSSP	0.728 ± 0.0081
SPPLRPPAPLVL	0.631 ± 0.14
ARHESRPTHSAQ	0.6924 ± 0.0046
DIKKLNKKAKIK	0.777 ± 0.15
WYIEYLNYTTEQ	0.697 ± 0.0089
LLTSRLSTPFLI	0.53 ± 0.012
